The record followed here is publication PMC4511216 (Genes & Development, 2015).

First the molecules themselves.
T1: human pMob1, full length, untagged (phosphorylated by Mst2) (human, UniProt Q9H8S9 1-216, phosphothreonine at 12 and 35)
T1 sequence: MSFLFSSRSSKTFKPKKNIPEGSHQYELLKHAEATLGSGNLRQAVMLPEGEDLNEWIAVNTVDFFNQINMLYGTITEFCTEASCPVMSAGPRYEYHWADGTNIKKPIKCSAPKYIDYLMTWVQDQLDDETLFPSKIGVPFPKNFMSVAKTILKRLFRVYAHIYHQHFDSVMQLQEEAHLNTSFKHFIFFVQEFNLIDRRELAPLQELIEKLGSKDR

T2: human Mst2 wild type, autophosphorylated (pMst2) (human, UniProt Q13188 9-491)
T2 sequence: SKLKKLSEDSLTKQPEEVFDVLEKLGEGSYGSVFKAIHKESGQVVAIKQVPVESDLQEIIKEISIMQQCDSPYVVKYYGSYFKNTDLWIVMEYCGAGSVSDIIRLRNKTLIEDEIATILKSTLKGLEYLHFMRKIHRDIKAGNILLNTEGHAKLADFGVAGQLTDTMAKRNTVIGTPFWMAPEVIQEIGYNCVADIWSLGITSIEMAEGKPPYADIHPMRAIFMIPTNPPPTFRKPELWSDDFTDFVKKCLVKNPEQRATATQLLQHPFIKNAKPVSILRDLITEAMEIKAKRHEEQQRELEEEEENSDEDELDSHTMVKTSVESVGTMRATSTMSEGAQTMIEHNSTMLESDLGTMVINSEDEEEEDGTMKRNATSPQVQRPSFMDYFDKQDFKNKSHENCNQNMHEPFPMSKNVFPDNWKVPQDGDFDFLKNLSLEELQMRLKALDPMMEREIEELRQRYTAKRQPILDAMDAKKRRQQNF

T3: human Lats1C ΔHM (residue 602–1060) (human, UniProt O95835 602-1060)
T3 sequence: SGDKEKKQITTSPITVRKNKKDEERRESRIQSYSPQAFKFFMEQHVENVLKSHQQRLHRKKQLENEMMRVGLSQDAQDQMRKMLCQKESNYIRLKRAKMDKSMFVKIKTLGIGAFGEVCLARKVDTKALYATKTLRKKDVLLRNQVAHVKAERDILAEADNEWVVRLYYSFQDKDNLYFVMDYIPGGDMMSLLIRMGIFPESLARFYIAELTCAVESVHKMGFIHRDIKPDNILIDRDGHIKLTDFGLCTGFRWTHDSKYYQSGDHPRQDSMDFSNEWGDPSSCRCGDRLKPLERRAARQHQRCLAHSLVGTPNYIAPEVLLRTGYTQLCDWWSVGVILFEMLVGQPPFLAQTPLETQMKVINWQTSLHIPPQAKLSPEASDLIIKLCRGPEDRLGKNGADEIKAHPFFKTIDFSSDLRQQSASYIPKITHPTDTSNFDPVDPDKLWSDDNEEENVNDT

B1: human Lats1 602–704 (Lats1 MBD) (domain or fragment)
chain: SGDKEKKQITTSPITVRKNKKDEERRESRIQSYSPQAFKFFMEQHVENVLKSHQQRLHRKKQLENEMMRVGLSQDAQDQMRKMLCQKESNYIRLKRAKMDKSM
B2: human Mob1, full length, unphosphorylated, untagged (natural protein)
chain: T1 sequence
B3: human Mst2 ΔL/MBM (contains only the MBM but lacks all other linker residues) (enzyme)
chain: SKLKKLSEDSLTKQPEEVFDVLEKLGEGSYGSVFKAIHKESGQVVAIKQVPVESDLQEIIKEISIMQQCDSPYVVKYYGSYFKNTDLWIVMEYCGAGSVSDIIRLRNKTLIEDEIATILKSTLKGLEYLHFMRKIHRDIKAGNILLNTEGHAKLADFGVAGQLTDTMAKRNTVIGTPFWMAPEVIQEIGYNCVADIWSLGITSIEMAEGKPPYADIHPMRAIFMIPTNPPPTFRKPELWSDDFTDFVKKCLVKNPEQRATATQLLQHPFIKNAKPVSILRDLITEAMEIKAKRHEEQQRELEEEEDEEEEDGTMKRNATSPQVQRPSFMDYFDKQNWKVPQDGDFDFLKNLSLEELQMRLKALDPMMEREIEELRQRYTAKRQPILDAMDAKKRRQQNF
B4: GST-Mst2 371–427, phosphorylated with Mst2 kinase domain (domain or fragment, human, UniProt Q13188 371-427, looked up)
chain: DEEEEDG[pT]MKRNATSPQVQRPSFMDYFDKQDFKNKSHENCNQNMHEPFPMSKNVFPD
modifications: also: GST fusion

In test [1] the target is PPXY-containing peptide of Lats1.
The target in test [2] is T1, human pMob1, full length, untagged …. The test is described as follows: crystal structure.
In test [3] the target is B2. The test can be described thus: ITC. (In ITC the heat of successive injections is recorded.)
Test [4] has as its target T2, human Mst2 wild type, …. The test can be described thus: NMR titration.
Test [5] addresses T3, human Lats1C ΔHM (residue 602–1060). The test is described as follows: SEC.
For test [6], the target named is B2. The test can be described thus: pull-down.
Test [7] addresses B2. The test is described as follows: ITC. The source holds these as a separate data set.
Another test has as its target human Mob1 F167A (human, UniProt Q9H8S9 1-216, F167A). The test can be described thus: pull-down.
The target of a further test is human Mob1 H164A (human, UniProt Q9H8S9 1-216, H164A). The test is described as follows: pull-down.
A further test has as its target human Mob1 L207K (human, UniProt Q9H8S9 1-216, L207K). The test can be described thus: pull-down.

Read-outs that look alike come from different tables or passages of the source. Square brackets hold non-standard residues; d marks the D form. Ends that are not written are not given here. pT = C[C@@H](OP(=O)(O)O)[C@H](N)C(=O)O

By Kd is commonly meant the constant that tells how readily two partners part at equilibrium. Low values mean a tighter complex, high ones a looser complex.

“human Sav WW domains (domain or fragment)” displayed a Kd in test [1] of 156000 nM. Take B1: the binding result in test [2] is given as “binds”. In turn, DEEEEDG[pT]MKRNATSPQVQRPSFMDYFDKQ [synthetic phospho-T378 Mst2 MBM peptide] yielded a Kd in test [3] of 119 nM. Turning to B2, the binding result in [4] and in test [5] was “binds” in each case. With DEEEEDG[pT]MKRNATSPQVQRPSFMDYFDKQD (domain or fragment, human, UniProt Q13188 371-401, looked up, not fully specified (N-terminus)) [GST-pMst2 MBM (residues 371–401), phosphorylated], in [6], the binding result is on record as “binds”.

Molecule B3 displayed a Kd in test [7] of 230 nM. On to DGTMKRNATSPQVQRPSFMDYFDKQ (domain or fragment, human, UniProt Q13188 376-400, looked up, not fully specified (N-terminus); also: phosphorylated, sites not given here) [GST-Mst2 linker fragment 376–400, phosphorylated with Mst2 kinase domain], for which the binding result in test [6] is recorded as “binds”.

Regarding B4, the binding result with human Mob1 F167A, with human Mob1 H164A and with human Mob1 L207K was “binds” each time.
